For two proteins, Km, kcat and kcat/Km results are on record in paper PMC6980832, “Crystal structures of Triosephosphate Isomerases from Taenia solium and Schistosoma mansoni provide insights for vaccine rationale and drug design against helminth parasites” (PLoS Neglected Tropical Diseases, 2020).

Substrate in series [1]: O=CC(O)COP(=O)(O)O
Nature of the series: purified protein. The class given is biochemical, Schistosoma mansoni. The conditions noted are these: 0.1 M TEA-HCl pH 7.4, 10 mM EDTA, 0.2 mM NADH, 21 °C, G3P 0 to 5 mM, G3P to DHAP direction.

Substrate in series [2]: O=CC(O)COP(=O)(O)O
Kind of series: purified protein. The conditions noted are these: 0.1 M TEA-HCl pH 7.4, 10 mM EDTA, 0.2 mM NADH, 21 °C, G3P 0 to 5 mM, G3P to DHAP direction. It counts as biochemical, Taenia solium.

B1: SmTPI (Schistosoma mansoni) (protein)
chain: MSGSRKFFVGGNWKMNGSRDDNDKLLKLLSEAHFDDNTEVLIAPPSVFLHEIRKSLKKEIHVAAQNCYKVSKGAFTGEISPAMIRDIGCDWVILGHSERRNIFGESDELIAEKVQHALAEGLSVIACIGETLSERESNKTEEVCVRQLKAIANKIKSADEWKRVVVAYEPVWAIGTGKVATPQQAQEVHNFLRKWFKTNAPNGVDEKIRIIYGGSVTAANCKELAQQHDVDGFLVGGASLKPEFTEICKARQR
notes: full length, codon-optimised synthetic gene, E. coli tpi-null strain, modified pET19; extra Gly-Pro-His before Met1; homodimer about 50 kDa
The term Km denotes the concentration of substrate that gives half-maximal velocity. In general, kcat refers to the maximal rate divided by the concentration of active sites. The kcat/Km is the turnover number divided by the Michaelis constant. Regarding B1, in series [1], the Km is 480 ± 70 µM, the kcat turned out to be 2870 ± 138 s⁻¹ and the kcat/Km was determined as 5.8e+06 M⁻¹ s⁻¹.

B2: TsTPI (Taenia solium) (protein)
chain: MTRKLFVGGNWKMNGSYSHINTFFDTLQKADTDPNADIVIGVPACYLKYAQDKAPKGIKIAAENCYKVGSGAFTGEISTEMIKDCGCEWVILGHSERRHIFGESNELIGEKVKHALDSGLNVIPCIGELLSEREAGKTNDVCFAQMDAIAKNVPSKEAWDKVVIAYEPVWAIGTGKTATPAQAQEVHKVVRDWIRKHVDAGIADKVRILYGGSVTASNAKDLGTQPDVDGFLVGGASLKPDFITIINARR
notes: full length, codon-optimised synthetic gene, E. coli tpi-null strain, modified pET19; extra Gly-Pro-His before Met1; homodimer
As to B2, in series [2], the Km was 310 ± 30 µM, the kcat stood at 993 ± 44 s⁻¹ and the kcat/Km was 3.15e+06 M⁻¹ s⁻¹.
